Measured values as given in PMC11297306 (Nature Communications, 2024).

Target: EEEV virus-like particles (strain PE6) (eastern equine encephalitis virus, strain PE6)
Assay: BLI

Row | Substance | Kd [µM]
1 | VLDLRLA1-Fc fusion protein (from UniProt P98155-1 31-69) | 15.5
2 | VLDLRLBD-Fc fusion protein (from UniProt P98155-1 31-355) | 0.0021
